Results as given in PMC11864179 (Science Advances, 2025).
Non-standard residues stand in square brackets, D forms with d. No end group written: not given here. *: point of attachment. Biotin = O=C1N[C@H]2[C@H](CS[C@H]2CCCCC(=O)*)N1; pS = N[C@@H](COP(=O)(O)O)C(=O)O

Target: T1, HTP-3–HIM-3 complex containing His6-tagged HTP-3 and wild-type HIM-3 (C. elegans, UniProt O01820 2-739; G5EBG0 1-291)
T1 sequence (looked up) 1: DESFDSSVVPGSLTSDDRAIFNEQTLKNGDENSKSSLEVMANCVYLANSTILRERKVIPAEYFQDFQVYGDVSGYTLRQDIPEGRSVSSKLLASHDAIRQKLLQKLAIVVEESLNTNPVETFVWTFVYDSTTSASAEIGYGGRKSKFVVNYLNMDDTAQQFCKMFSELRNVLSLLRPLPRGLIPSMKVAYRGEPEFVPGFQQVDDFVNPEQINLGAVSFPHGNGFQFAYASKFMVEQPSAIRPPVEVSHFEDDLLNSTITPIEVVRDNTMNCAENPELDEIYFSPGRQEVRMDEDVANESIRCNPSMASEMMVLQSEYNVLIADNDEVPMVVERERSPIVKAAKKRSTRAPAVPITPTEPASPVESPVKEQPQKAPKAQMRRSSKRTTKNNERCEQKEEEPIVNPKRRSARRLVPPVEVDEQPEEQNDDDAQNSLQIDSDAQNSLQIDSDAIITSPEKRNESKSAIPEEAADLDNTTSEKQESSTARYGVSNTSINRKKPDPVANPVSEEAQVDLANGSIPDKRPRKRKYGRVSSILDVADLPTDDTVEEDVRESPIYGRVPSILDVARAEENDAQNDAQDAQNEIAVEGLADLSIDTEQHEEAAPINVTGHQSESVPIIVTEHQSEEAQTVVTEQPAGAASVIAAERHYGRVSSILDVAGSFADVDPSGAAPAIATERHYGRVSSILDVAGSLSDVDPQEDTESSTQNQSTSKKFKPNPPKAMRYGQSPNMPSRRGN
T1 sequence (looked up) 2: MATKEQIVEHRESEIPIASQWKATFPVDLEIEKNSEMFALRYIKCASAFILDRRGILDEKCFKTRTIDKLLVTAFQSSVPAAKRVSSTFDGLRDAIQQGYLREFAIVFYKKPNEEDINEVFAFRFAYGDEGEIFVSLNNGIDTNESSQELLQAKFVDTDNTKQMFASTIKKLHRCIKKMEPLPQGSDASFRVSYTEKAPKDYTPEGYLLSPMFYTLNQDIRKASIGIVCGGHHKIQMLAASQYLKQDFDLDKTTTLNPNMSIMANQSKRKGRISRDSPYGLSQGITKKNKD
Test: pull-down

B1: SYP-5 peptide spanning residues 528 to 547, phosphorylated at S541 (peptide)
peptide: Biotin-DDDLNDEEGDADQ[pS]IWGSDD
B1: binds.
